Test results: US20250177546A1, “ROR1-TARGETED BINDING MOLECULE AND USE THEREOF” (SANYOU BIOPHARMACEUTICALS CO., LTD., priority 2022, published 2025)

Legend:
[1] = target: huROR1-His (human ROR1 ECD AA30-406 with C-terminal His tag, made in house) (human) (UniProt Q01973); experiment: ELISA, huROR1-His coated at 2 µg/mL, goat anti-human Fc-HRP, OD450
[2] = target: huROR1-His (human ROR1 ECD AA30-406 with C-terminal His tag, made in house) (human) (UniProt Q01973); experiment: ELISA, huROR1-His coated plate, goat anti-human Fc-HRP, OD450
[3] = target: human ROR1 on cells (full-length human ROR1 on huROR1-HEK293 cells; human ROR1 on A549 and HT-29 tumor cells) (human) (UniProt Q01973); experiment: flow cytometry (FACS) on A549 tumor cells, anti-human IgG-Fc secondary antibody, MFI
Chain of human ROR1 on cells (full-length human ROR1 on huROR1-HEK293 cells; human ROR1 on A549 and HT-29 tumor cells) (human) (Q01973 30-937): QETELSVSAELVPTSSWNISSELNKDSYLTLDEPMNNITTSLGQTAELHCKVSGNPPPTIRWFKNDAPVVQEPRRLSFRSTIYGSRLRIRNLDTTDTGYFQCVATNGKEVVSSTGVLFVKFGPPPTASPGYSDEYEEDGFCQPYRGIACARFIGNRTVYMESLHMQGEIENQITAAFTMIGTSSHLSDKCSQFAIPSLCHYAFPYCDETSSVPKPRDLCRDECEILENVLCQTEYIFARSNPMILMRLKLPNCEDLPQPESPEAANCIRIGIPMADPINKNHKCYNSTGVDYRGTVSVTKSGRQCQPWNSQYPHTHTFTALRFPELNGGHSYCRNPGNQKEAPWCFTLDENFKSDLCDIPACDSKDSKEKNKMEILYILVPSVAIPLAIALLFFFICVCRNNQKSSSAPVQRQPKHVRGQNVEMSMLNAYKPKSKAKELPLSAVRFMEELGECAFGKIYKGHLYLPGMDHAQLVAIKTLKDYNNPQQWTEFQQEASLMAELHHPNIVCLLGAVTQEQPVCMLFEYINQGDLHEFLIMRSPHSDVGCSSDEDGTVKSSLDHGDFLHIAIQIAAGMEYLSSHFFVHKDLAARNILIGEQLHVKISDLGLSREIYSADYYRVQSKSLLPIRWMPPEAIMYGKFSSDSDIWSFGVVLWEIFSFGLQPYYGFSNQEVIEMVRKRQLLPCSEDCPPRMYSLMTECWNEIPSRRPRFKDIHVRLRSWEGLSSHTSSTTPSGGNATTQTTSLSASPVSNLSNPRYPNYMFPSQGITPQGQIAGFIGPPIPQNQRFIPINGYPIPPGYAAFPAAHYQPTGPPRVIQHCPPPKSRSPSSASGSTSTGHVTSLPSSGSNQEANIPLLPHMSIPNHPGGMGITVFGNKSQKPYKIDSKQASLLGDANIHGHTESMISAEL

[4] = target: huROR1-His (human ROR1 ECD AA30-406 with C-terminal His tag, made in house) (human) (UniProt Q01973); experiment: ELISA, huROR1-His coated at 2 µg/mL, goat anti-human Fc-HRP, OD450; remark: listed apart in the source
[5] = target: huROR1-His (human ROR1 ECD AA30-406 with C-terminal His tag, made in house) (human) (UniProt Q01973); experiment: ELISA, huROR1-His coated plate, goat anti-human Fc-HRP, OD450; remark: listed apart in the source
[6] = target: huROR1-His (human ROR1 ECD AA30-406 with C-terminal His tag, made in house) (human) (UniProt Q01973); experiment: Biacore T200 SPR; huROR1-His amine-coupled (~75 RU), antibody 4 and 20 nM as analyte, 1:1 Langmuir fit
[7] = target: human ROR1 on cells (full-length human ROR1 on huROR1-HEK293 cells; human ROR1 on A549 and HT-29 tumor cells) (human) (UniProt Q01973); experiment: flow cytometry (FACS) on HT29 (HT-29) tumor cells, anti-human IgG-Fc secondary antibody, MFI
[8] = target: human ROR1 on cells (full-length human ROR1 on huROR1-HEK293 cells; human ROR1 on A549 and HT-29 tumor cells) (human) (UniProt Q01973); experiment: flow cytometry (FACS) on huROR1-HEK293 cells, anti-human IgG-Fc secondary antibody, MFI
[9] = target: huROR1-His (human ROR1 ECD AA30-406 with C-terminal His tag, made in house) (human) (UniProt Q01973); experiment: ELISA, huROR1-His coated plate, goat anti-human Fc-HRP, OD450; remark: listed apart in the source
[10] = target: huROR1-His (human ROR1 ECD AA30-406 with C-terminal His tag, made in house) (human) (UniProt Q01973); experiment: Gator (BLI) Advanced Kinetics; antibody 30 nM, huROR1-His 480-7.5 nM
[11] = target: huROR1-His (human ROR1 ECD AA30-406 with C-terminal His tag, made in house) (human) (UniProt Q01973); experiment: ELISA, huROR1-His coated plate, goat anti-human Fc-HRP, OD450; remark: listed apart in the source
[12] = target: huROR1-His (human ROR1 ECD AA30-406 with C-terminal His tag, made in house) (human) (UniProt Q01973); experiment: as above; remark: listed apart in the source
[13] = target: human ROR1 on cells (full-length human ROR1 on huROR1-HEK293 cells; human ROR1 on A549 and HT-29 tumor cells) (human) (UniProt Q01973); experiment: flow cytometry (FACS) on huROR1-HEK293 cells, anti-human IgG-Fc secondary antibody, MFI; remark: listed apart in the source
[14] = target: human ROR1 on cells (full-length human ROR1 on huROR1-HEK293 cells; human ROR1 on A549 and HT-29 tumor cells) (human) (UniProt Q01973); experiment: flow cytometry (FACS) on A549 tumor cells, anti-human IgG-Fc secondary antibody, MFI; remark: listed apart in the source

Chain of huROR1-His (human ROR1 ECD AA30-406 with C-terminal His tag, made in house) (human) (Q01973 30-406 limits assumed): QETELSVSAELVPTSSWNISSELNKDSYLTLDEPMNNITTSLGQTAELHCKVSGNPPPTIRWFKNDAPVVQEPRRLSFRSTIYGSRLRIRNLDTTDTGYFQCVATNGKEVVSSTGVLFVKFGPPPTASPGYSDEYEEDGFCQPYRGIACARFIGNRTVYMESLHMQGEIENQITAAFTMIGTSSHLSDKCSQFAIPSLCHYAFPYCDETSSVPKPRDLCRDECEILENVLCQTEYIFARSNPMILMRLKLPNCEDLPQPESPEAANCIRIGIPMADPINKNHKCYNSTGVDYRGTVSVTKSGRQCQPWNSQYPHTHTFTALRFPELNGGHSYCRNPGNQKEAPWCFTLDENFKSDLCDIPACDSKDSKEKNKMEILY

EC50 [1]: 5.12 ng/mL
EC50 [2]: 3.3 ng/mL
EC50 (read off the curve) [3]: 10 ng/mL
EC50 [4]: 5.78 ng/mL
EC50 [5]: 2.56 ng/mL
Kd [6]: 1.98 nM
koff [6]: 0.00137 s⁻¹
kon [6]: 694000 M⁻¹ s⁻¹
t 1/2 [6]: 8.41 min
EC50 (read off the curve) [7]: 20 ng/mL
EC50 (read off the curve) [8]: 60 ng/mL
EC50 [9]: 3 ng/mL
Kd [10]: 13.5 nM
koff [10]: 0.00712 s⁻¹
kon [10]: 529000 M⁻¹ s⁻¹
EC50 [11]: 3 ng/mL
EC50 [12]: 3.24 ng/mL
EC50 (read off the curve) [13]: 50 ng/mL
EC50 (read off the curve) [14]: 3 ng/mL
Substance: Cirmtuzumab (positive control anti-ROR1 antibody, clone number 99961.1)
